Reference: patent US8518892B2, “Methods to treat symptoms of pathophysiology related to body mass” (Board of Supervisors of Louisiana State University and …, priority 2005, dated 2013)

What was measured:
[1] = system: KKAy mice; experiment: Enho 1 ip for 3 days in KKAy mice (Examples 16-18); type: in vivo, mouse
Experimental: (§1) The effect of Enho-1 upon weight loss was tested over the course of 3 days using KKAy mice. The mice were fed Breeder Chow (Purina 5015) and were approximately 12-14 weeks of age at the start of the experiment. Six control mice received vehicle only while six test mice each received doses of either 900 nmol/kg/d or 9000 nmol/kg/d. The injections were given as 3 intraperitoneal (ip) injections at 0600, 1400 and 2000 h on days 1 and 2; over the 3 day period, the mice received a total of 7 injections. All animals were euthanized 5 hours after the last injection given the morning of the third day. Food was removed after the final injection.
as §1, with “insulin and glucose” for “weight loss”, “while five or” for “while”, “nmol/kg/d, respectively.” for “nmol/kg/d.”, “ip” for “intraperitoneal (ip)”, “injection. The HOMA-IR for each treatment was calculated using the following formula: ((glucose mg/dL÷18)×(insulin ng/ml×25.05))÷22.5” for “injection.”
as §1, with “liver weight, liver lipid content and liver TG” for “weight loss”, “while five or” for “while”, “nmol/kg/d, respectively.” for “nmol/kg/d.”, “ip” for “intraperitoneal (ip)”

[2] = system: obese (ob/ob) mice; experiment: Enho 1 ip for 8 days in obese (ob/ob) mice, serum lipids (Example 22); type: in vivo, mouse
Experimental: The effect of Enho-1 upon liver serum lipid content was tested over the course of 8 days using obese (ob/ob) mice. The mice were fed Research Diets 12450 and were approximately 9-10 weeks of age at the start of the experiment. Control mice received vehicle only while test mice each received doses of either 90 nmol/kg/d, 900 nmol/kg/d or 9000 nmol/kg/d. The injections were given as 3 ip injections at 0800, 1200 and 1600 h for 7 days. On day 8, the mice were given the 0800 h injection and were sacrificed 1-3 h later, at which time blood samples were taken.
Blood glucose levels were measured using an Accu-Chek glucometer. Insulin levels were measured by ELISA (Mercodia Mouse Insulin ELISA, ALPCO) while triglycerides were measured using a Triglyceride L-Type TG H kit (Wako Diagnostics).

[3] = 900 nmol/kg/d ip, listed as Enho-1
[4] = 9000 nmol/kg/d ip, listed as Enho-1
[5] = 90 nmol/kg/d ip, listed as Enho-1

B1: Enho 1: human Enho 1, a 76 amino acid peptide having the sequence SEQ ID NO: 14 (peptide, listed as Homo sapiens)
chain: MGAAISQGALIAIVCNGLVGFLLLLLWVILCWACHSRSADVDSLSESSPNSSPGPCPEKAPPPQKPSHEGSYLLQP
What does the source list for B1?
Blood glucose ([1]; 900 nmol/kg/d ip): 474 mg/dL; HOMA-IR ([1]; 900 nmol/kg/d ip): 167; HOMA-IR decrease as compared to the control group ([1]; 900 nmol/kg/d ip): 29%; Insulin ([1]; 900 nmol/kg/d ip): 5.7 ng/mL; Liver TG ([1]; 900 nmol/kg/d ip): 40 mg/g; Liver TG total ([1]; 900 nmol/kg/d ip): 66 mg/g; Liver lipid ([1]; 900 nmol/kg/d ip): 82 mg/g; Liver lipid total ([1]; 900 nmol/kg/d ip): 137 mg/g; Liver weight ([1]; 900 nmol/kg/d ip): 1.6 g; Liver weight % body weight ([1]; 900 nmol/kg/d ip): 5.0%; Weight (pre-treatment) ([1]; 900 nmol/kg/d ip): 35.3 g; Weight (termination) ([1]; 900 nmol/kg/d ip): 33.0 g; blood glucose levels decrease ([1]; 900 nmol/kg/d ip): approximately 10%; insulin levels reduction ([1]; 900 nmol/kg/d ip): about 22%; liver TG reduction as compared to the control group ([1]; 900 nmol/kg/d ip): 32%; Blood glucose [1, 3]: 474 ± 29 mg/dL; HOMA-IR [1, 3]: 167 ± 18; HOMA-IR decrease as compared to the control group [1, 3]: (↓ 29%); Insulin [1, 3]: 5.7 ± 0.5 ng/mL; Liver TG [1, 3]: 40 ± 8 mg/g; Liver TG total [1, 3]: 66 ± 13 mg/g; Liver lipid [1, 3]: 82 ± 9 mg/g; Liver lipid total [1, 3]: 137 ± 18 mg/g; Liver weight [1, 3]: 1.6 ± 0.1 g; Liver weight % body weight [1, 3]: 5.0 ± 0.2%; Weight (pre-treatment) [1, 3]: 35.3 ± 1.1 g; Weight (termination) [1, 3]: 33.0 ± 1.0 g; Blood glucose ([1]; 9000 nmol/kg/d ip): 480 mg/dL; HOMA-IR ([1]; 9000 nmol/kg/d ip): 213; HOMA-IR decrease as compared to the control group ([1]; 9000 nmol/kg/d ip): 9%; Insulin ([1]; 9000 nmol/kg/d ip): 7.0 ng/mL; Liver TG total ([1]; 9000 nmol/kg/d ip): 53 mg/g; Liver lipid ([1]; 9000 nmol/kg/d ip): 87 mg/g; Liver lipid total ([1]; 9000 nmol/kg/d ip): 143 mg/g; Liver weight ([1]; 9000 nmol/kg/d ip): 1.6 g; Liver weight % body weight ([1]; 9000 nmol/kg/d ip): 4.9%; Weight (pre-treatment) ([1]; 9000 nmol/kg/d ip): 35.6 g; Weight (termination) ([1]; 9000 nmol/kg/d ip): 33.1 g; liver TG reduction as compared to the control group ([1]; 9000 nmol/kg/d ip): 46%; Liver TG ([1]; 9000 nmol/kg/d ip, P < 0.05 vs control): 32 mg/g; Liver TG ([1]; 9000 nmol/kg/d ip, P < 0.05 vs control, listed as Enho-1): 32 ± 5 mg/g; Blood glucose [1, 4]: 480 ± 38 mg/dL; HOMA-IR [1, 4]: 213 ± 37; HOMA-IR decrease as compared to the control group [1, 4]: (↓ 9%); Insulin [1, 4]: 7.0 ± 0.8 ng/mL; Liver TG total [1, 4]: 53 ± 11 mg/g; Liver lipid [1, 4]: 87 ± 6 mg/g; Liver lipid total [1, 4]: 143 ± 17 mg/g; Liver weight [1, 4]: 1.6 ± 0.1 g; Liver weight % body weight [1, 4]: 4.9 ± 0.3%; Weight (pre-treatment) [1, 4]: 35.6 ± 0.6 g; Weight (termination) [1, 4]: 33.1 ± 0.4 g; TG (blood triglyceride level) ([2]; 90 nmol/kg/d ip): 19.4 mg/dL; TG decrease in comparison with the control ([2]; 90 nmol/kg/d ip): 34%; TG (blood triglyceride level) [2, 5]: 19.4 ± 2.2 mg/dL; TG decrease in comparison with the control [2, 5]: (↓ 34%); TG (blood triglyceride level) ([2]; 900 nmol/kg/d ip): 18.4 mg/dL; TG decrease in comparison with the control ([2]; 900 nmol/kg/d ip): 38%; TG (blood triglyceride level) [2, 3]: 18.4 ± 2.3 mg/dL; TG decrease in comparison with the control [2, 3]: (↓ 38%); TG (blood triglyceride level) ([2]; 9000 nmol/kg/d ip): 22.0 mg/dL; TG decrease in comparison with the control ([2]; 9000 nmol/kg/d ip): 26%; TG (blood triglyceride level) [2, 4]: 22.0 ± 2.2 mg/dL; TG decrease in comparison with the control [2, 4]: (↓ 26%)
